Measured values taken from PMC8363014, “OsMADS23 phosphorylated by SAPK9 confers drought and salt tolerance by regulating ABA biosynthesis in rice”.

B1: OsNCED2-b (probe 2) (dsDNA)
DNA 1: GGGGTTGTCTATGTAACATATAATTGGATATATATTCATTCC
DNA 2: GGAATGAATATATATCCAATTATATGTTACATAGACAACCCC
modifications: 3' biotin
B2: OsNCED2-a (probe 1) (dsDNA)
DNA 1: AACATTCTATCCCATAAAATTGTGTTTTGTTGCAAATGTCC
DNA 2: GGACATTTGCAACAAAACACAATTTTATGGGATAGAATGTT
modifications: 3' biotin
B3: OsNCED2-c (probe 3) (dsDNA)
DNA 1: GGGGCTAATAATTAGCCTTCCAAAATTTTGCTATTTATAAGTA
DNA 2: TACTTATAAATAGCAAAATTTTGGAAGGCTAATTATTAGCCCC
modifications: 3' biotin

What follows are binders tested against OsMADS23 (Oryza sativa (rice), UniProt Q6VAM4 1-159) (assay: EMSA; signal reduced by excess unlabeled probe; LightShift Chemiluminescent EMSA kit (Thermo), manufacturer's instructions; buffer, salt, pH and temperature not stated). Conditions: protein: recombinant; tags: His, trigger factor (pCold-TF); chain copies: 2; label: biotin; blunt.
Chain of OsMADS23 (Q6VAM4 whole entry): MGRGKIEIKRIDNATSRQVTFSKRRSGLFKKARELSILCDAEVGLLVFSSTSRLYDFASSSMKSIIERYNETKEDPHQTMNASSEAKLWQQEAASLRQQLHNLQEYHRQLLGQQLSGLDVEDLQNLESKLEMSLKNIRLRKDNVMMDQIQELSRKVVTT

Binding result, binds:
B1
B2
B3
